Measurements reported in patent publication US20110091994A1, “Methods for Screening Compounds for Treating and/or Preventing an Hepatitis C Virus Infection” (priority 2008, published 2011).

B1: NEFM (protein, UniProt P07197 2-916, looked up)
Neurofilament medium …: SYTLDSLGNPSAYRRVTETRSSFSRVSGSPSSGFRSQSWSRGSPSTVSSSYKRSMLAPRLAYSSAMLSSAESSLDFSQSSSLLNGGSGPGGDYKLSRSNEKEQLQGLNDRFAGYIEKVHYLEQQNKEIEAEIQALRQKQASHAQLGDAYDQEIRELRATLEMVNHEKAQVQLDSDHLEEDIHRLKERFEEEARLRDDTEAAIRALRKDIEEASLVKVELDKKVQSLQDEVAFLRSNHEEEVADLLAQIQASHITVERKDYLKTDISTALKEIRSQLESHSDQNMHQAEEWFKCRYAKLTEAAEQNKEAIRSAKEEIAEYRRQLQSKSIELESVRGTKESLERQLSDIEERHNHDLSSYQDTIQQLENELRGTKWEMARHLREYQDLLNVKMALDIEIAAYRKLLEGEETRFSTFAGSITGPLYTHRPPITISSKIQKPKVEAPKLKVQHKFVEEIIEETKVEDEKSEMEEALTAITEELAVSMKEEKKEAAEEKEEEPEAEEEEVAAKKSPVKATAPEVKEEEGEKEEEEGQEEEEEEDEGAKSDQAEEGGSEKEGSSEKEEGEQEEGETEAEAEGEEAEAKEEKKVEEKSEEVATKEELVADAKVEKPEKAKSPVPKSPVEEKGKSPVPKSPVEEKGKSPVPKSPVEEKGKSPVPKSPVEEKGKSPVSKSPVEEKAKSPVPKSPVEEAKSKAEVGKGEQKEEEEKEVKEAPKEEKVEKKEEKPKDVPEKKKAESPVKEEAVAEVVTITKSVKVHLEKETKEEGKPLQQEKEKEKAGGEGGSEEEGSDKGAKGSRKEDIAVNGEVEGKEEVEQETKEKGSGREEEKGVVTNGLDLSPADEKKGGDKSEEKVVVTKTVEKITSEGGDGATKYITKSVTVTQKVEEHEETFEEKLVSTKKVEKVTSHAIVKEVTQSD
B2: N-PAC (protein, UniProt Q49A26 1-553, looked up)
Cytokine-like nuclear factor …: MAAVSLRLGDLVWGKLGRYPPWPGKIVNPPKDLKKPRGKKCFFVKFFGTEDHAWIKVEQLKPYHAHKEEMIKINKGKRFQQAVDAVEEFLRRAKGKDQTSSHNSSDDKNRRNSSEERSRPNSGDEKRKLSLSEGKVKKNMGEGKKRVSSGSSERGSKSPLKRAQEQSPRKRGRPPKDEKDLTIPESSTVKGMMAGPMAAFKWQPTASEPVKDADPHFHHFLLSQTEKPAVCYQAITKKLKICEEETGSTSIQAADSTAVNGSITPTDKKIGFLGLGLMGSGIVSNLLKMGHTVTVWNRTAEKCDLFIQEGARLGRTPAEVVSTCDITFACVSDPKAAKDLVLGPSGVLQGIRPGKCYVDMSTVDADTVTELAQVIVSRGGRFLEAPVSGNQQLSNDGMLVILAAGDRGLYEDCSSCFQAMGKTSFFLGEVGNAAKMMLIVNMVQGSFMATIAEGLTLAQVTGQSQQTLLDILNQGQLASIFLDQKCQNILQGNFKPDFYLKYIQKDLRLAIALGDAVNHPTPMAAAANEVYKRAKALDQSDNDMSAVYRAYIH
B3: NELL1 (protein, UniProt Q92832 22-810, looked up)
Protein kinase C-binding …: FGMDPDLQMDIVTELDLVNTTLGVAQVSGMHNASKAFLFQDIEREIHAAPHVSEKLIQLFRNKSEFTILATVQQKPSTSGVILSIRELEHSYFELESSGLRDEIRYHYIHNGKPRTEALPYRMADGQWHKVALSVSASHLLLHVDCNRIYERVIDPPDTNLPPGINLWLGQRNQKHGLFKGIIQDGKIIFMPNGYITQCPNLNHTCPTCSDFLSLVQGIMDLQELLAKMTAKLNYAETRLSQLENCHCEKTCQVSGLLYRDQDSWVDGDHCRNCTCKSGAVECRRMSCPPLNCSPDSLPVHIAGQCCKVCRPKCIYGGKVLAEGQRILTKSCRECRGGVLVKITEMCPPLNCSEKDHILPENQCCRVCRGHNFCAEGPKCGENSECKNWNTKATCECKSGYISVQGDSAYCEDIDECAAKMHYCHANTVCVNLPGLYRCDCVPGYIRVDDFSCTEHDECGSGQHNCDENAICTNTVQGHSCTCKPGYVGNGTICRAFCEEGCRYGGTCVAPNKCVCPSGFTGSHCEKDIDECSEGIIECHNHSRCVNLPGWYHCECRSGFHDDGTYSLSGESCIDIDECALRTHTCWNDSACINLAGGFDCLCPSGPSCSGDCPHEGGLKHNGQVWTLKEDRCSVCSCKDGKIFCRRTACDCQNPSADLFCCPECDTRVTSQCLDQNGHKLYRSGDNWTHSCQQCRCLEGEVDCWPLTCPNLSCEYTAILEGECCPRCVSDPCLADNITYDIRKTCLDSYGVSRLSGSVWTMAGSPCTTCKCKNGRVCCSVDFECLQNN
B4: NID2 (protein, UniProt Q14112 31-1375, looked up)
Nidogen-2: LHPDELFPHGESWGDQLLQEGDDESSAVVKLANPLHFYEARFSNLYVGTNGIISTQDFPRETQYVDYDFPTDFPAIAPFLADIDTSHGRGRVLYREDTSPAVLGLAARYVRAGFPRSARFTPTHAFLATWEQVGAYEEVKRGALPSGELNTFQAVLASDGSDSYALFLYPANGLQFLGTRPKESYNVQLQLPARVGFCRGEADDLKSEGPYFSLTSTEQSVKNLYQLSNLGIPGVWAFHIGSTSPLDNVRPAAVGDLSAAHSSVPLGRSFSHATALESDYNEDNLDYYDVNEEEAEYLPGEPEEALNGHSSIDVSFQSKVDTKPLEESSTLDPHTKEGTSLGEVGGPDLKGQVEPWDERETRSPAPPEVDRDSLAPSWETPPPYPENGSIQPYPDGGPVPSEMDVPPAHPEEEIVLRSYPASGHTTPLSRGTYEVGLEDNIGSNTEVFTYNAANKETCEHNHRQCSRHAFCTDYATGFCCHCQSKFYGNGKHCLPEGAPHRVNGKVSGHLHVGHTPVHFTDVDLHAYIVGNDGRAYTAISHIPQPAAQALLPLTPIGGLFGWLFALEKPGSENGFSLAGAAFTHDMEVTFYPGEETVRITQTAEGLDPENYLSIKTNIQGQVPYVSANFTAHISPYKELYHYSDSTVTSTSSRDYSLTFGAINQTWSYRIHQNITYQVCRHAPRHPSFPTTQQLNVDRVFALYNDEERVLRFAVTNQIGPVKEDSDPTPGNPCYDGSHMCDTTARCHPGTGVDYTCECASGYQGDGRNCVDENECATGFHRCGPNSVCINLPGSYRCECRSGYEFADDRHTCILITPPANPCEDGSHTCAPAGQARCVHHGGSTFSCACLPGYAGDGHQCTDVDECSENRCHPAATCYNTPGSFSCRCQPGYYGDGFQCIPDSTSSLTPCEQQQRHAQAQYAYPGARFHIPQCDEQGNFLPLQCHGSTGFCWCVDPDGHEVPGTQTPPGSTPPHCGPSPEPTQRPPTICERWRENLLEHYGGTPRDDQYVPQCDDLGHFIPLQCHGKSDFCWCVDKDGREVQGTRSQPGTTPACIPTVAPPMVRPTPRPDVTPPSVGTFLLYTQGQQIGYLPLNGTRLQKDAAKTLLSLHGSIIVGIDYDCRERMVYWTDVAGRTISRAGLELGAEPETIVNSGLISPEGLAIDHIRRTMYWTDSVLDKIESALLDGSERKVLFYTDLVNPRAIAVDPIRGNLYWTDWNREAPKIETSSLDGENRRILINTDIGLPNGLTFDPFSKLLCWADAGTKKLECTLPDGTGRRVIQNNLKYPFSIVSYADHFYHTDWRRDGVVSVNKHSGQFTDEYLPEQRSHLYGITAVYPYCPTGRK
B5: NUP62 (protein, UniProt P37198 2-522, looked up)
Nuclear pore glycoprotein p62: SGFNFGGTGAPTGGFTFGTAKTATTTPATGFSFSTSGTGGFNFGAPFQPATSTPSTGLFSLATQTPATQTTGFTFGTATLASGGTGFSLGIGASKLNLSNTAATPAMANPSGFGLGSSNLTNAISSTVTSSQGTAPTGFVFGPSTTSVAPATTSGGFSFTGGSTAQPSGFNIGSAGNSAQPTAPATLPFTPATPAATTAGATQPAAPTPTATITSTGPSLFASIATAPTSSATTGLSLCTPVTTAGAPTAGTQGFSLKAPGAASGTSTTTSTAATATATTTSSSSTTGFALNLKPLAPAGIPSNTAAAVTAPPGPGAAAGAAASSAMTYAQLESLINKWSLELEDQERHFLQQATQVNAWDRTLIENGEKITSLHREVEKVKLDQKRLDQELDFILSQQKELEDLLSPLEELVKEQSGTIYLQHADEEREKTYKLAENIDAQLKRMAQDLKDIIEHLNTSGAPADTSDPLQQICKILNAHMDSLQWIDQNSALLQRKVEEVTKVCEGRRKEQERSFRITFD
B6: NID1 (protein, UniProt P14543 29-1247, looked up)
Nidogen-1: LSRQELFPFGPGQGDLELEDGDDFVSPALELSGALRFYDRSDIDAVYVTTNGIIATSEPPAKESHPGLFPPTFGAVAPFLADLDTTDGLGKVYYREDLSPSITQRAAECVHRGFPEISFQPSSAVVVTWESVAPYQGPSRDPDQKGKRNTFQAVLASSDSSSYAIFLYPEDGLQFHTTFSKKENNQVPAVVAFSQGSVGFLWKSNGAYNIFANDRESVENLAKSSNSGQQGVWVFEIGSPATTNGVVPADVILGTEDGAEYDDEDEDYDLATTRLGLEDVGTTPFSYKALRRGGADTYSVPSVLSPRRAATERPLGPPTERTRSFQLAVETFHQQHPQVIDVDEVEETGVVFSYNTDSRQTCANNRHQCSVHAECRDYATGFCCSCVAGYTGNGRQCVAEGSPQRVNGKVKGRIFVGSSQVPIVFENTDLHSYVVMNHGRSYTAISTIPETVGYSLLPLAPVGGIIGWMFAVEQDGFKNGFSITGGEFTRQAEVTFVGHPGNLVIKQRFSGIDEHGHLTIDTELEGRVPQIPFGSSVHIEPYTELYHYSTSVITSSSTREYTVTEPERDGASPSRIYTYQWRQTITFQECVHDDSRPALPSTQQLSVDSVFVLYNQEEKILRYALSNSIGPVREGSPDALQNPCYIGTHGCDTNAACRPGPRTQFTCECSIGFRGDGRTCYDIDECSEQPSVCGSHTICNNHPGTFRCECVEGYQFSDEGTCVAVVDQRPINYCETGLHNCDIPQRAQCIYTGGSSYTCSCLPGFSGDGQACQDVDECQPSRCHPDAFCYNTPGSFTCQCKPGYQGDGFRCVPGEVEKTRCQHEREHILGAAGATDPQRPIPPGLFVPECDAHGHYAPTQCHGSTGYCWCVDRDGREVEGTRTRPGMTPPCLSTVAPPIHQGPAVPTAVIPLPPGTHLLFAQTGKIERLPLEGNTMRKTEAKAFLHVPAKVIIGLAFDCVDKMVYWTDITEPSIGRASLHGGEPTTIIRQDLGSPEGIAVDHLGRNIFWTDSNLDRIEVAKLDGTQRRVLFETDLVNPRGIVTDSVRGNLYWTDWNRDNPKIETSYMDGTNRRILVQDDLGLPNGLTFDAFSSQLCWVDAGTNRAECLNPSQPSRRKALEGLQYPFAVTSYGKNLYFTDWKMNSVVALDLAISKETDAFQPHKQTRLYGITTALSQCPQGHNYCSVNNGGCTHLCLATPGSRTCRCPDNTLGVDCIEQK

Molecular target: T1, HCV ORFs (Gal4-DB fusions) (Hepatitis C virus genotype 1b, UniProt Q9WMX2)
T1 construct: expressed in transfected cells; host or cells: Saccharomyces cerevisiae MAV203 (IMAP1) / AH109 (IMAP2)
Assay: not given
Format: binding, HCV genotype 1b, isolate con1
Conditions: HCV protein NS3 as bait; human protein as prey
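Wherever IMAP Y2H IMAP1 (number of IST) is given: yeast two-hybrid screens using HCV genotype 1b proteins fused to Gal4-DB as baits against prey cDNA libraries from human spleen and foetal brain, IMAP1 via transformation and IMAP2 via mating.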
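Wherever IMAP Y2H IMAP2 (number of IST) is given: yeast two-hybrid screens using HCV genotype 1b proteins fused to Gal4-DB as baits against prey cDNA libraries from human spleen and foetal brain, IMAP1 via transformation and IMAP2 via mating.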
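Wherever Interaction with viral protein is given: yeast two-hybrid screens using HCV genotype 1b proteins fused to Gal4-DB as baits against prey cDNA libraries from human spleen and foetal brain, IMAP1 via transformation and IMAP2 via mating.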

T1 sequence (Q9WMX2 1027-1657): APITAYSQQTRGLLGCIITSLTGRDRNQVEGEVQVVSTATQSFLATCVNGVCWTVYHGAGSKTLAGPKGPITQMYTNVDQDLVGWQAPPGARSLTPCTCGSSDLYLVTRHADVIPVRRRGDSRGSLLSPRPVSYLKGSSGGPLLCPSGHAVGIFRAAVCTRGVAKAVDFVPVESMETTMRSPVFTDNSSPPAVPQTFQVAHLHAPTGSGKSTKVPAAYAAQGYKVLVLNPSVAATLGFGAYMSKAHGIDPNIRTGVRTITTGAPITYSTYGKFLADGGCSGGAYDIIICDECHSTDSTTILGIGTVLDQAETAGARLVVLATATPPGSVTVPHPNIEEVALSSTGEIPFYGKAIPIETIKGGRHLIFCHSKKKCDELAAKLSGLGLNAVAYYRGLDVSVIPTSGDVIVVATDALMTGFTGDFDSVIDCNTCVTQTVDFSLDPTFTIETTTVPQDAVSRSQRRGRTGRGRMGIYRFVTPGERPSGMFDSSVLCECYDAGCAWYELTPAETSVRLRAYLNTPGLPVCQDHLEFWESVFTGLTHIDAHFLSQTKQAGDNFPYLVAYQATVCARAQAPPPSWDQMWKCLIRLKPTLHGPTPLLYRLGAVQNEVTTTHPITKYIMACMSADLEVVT

Molecule	IMAP Y2H IMAP1 (number of IST)	IMAP Y2H IMAP2 (number of IST)
B1	1	–
B2	2	11
B3	3	–
B4	2	–
B5	3	–
B6	2	–

System: HCV ORFs (Gal4-DB fusions)
Assay: not given
Format: binding, HCV genotype 1b, isolate con1
Conditions: human protein listed by gene symbol; the value names the HCV protein it interacts with

Molecule	Interaction with viral protein
B1	NS3
B2	NS3
B3	NS3
B4	NS3
B5	NS3
B6	NS3

Molecular target: T2, HCV proteins (Hepatitis C virus genotype 1b, UniProt Q9WMX2)
T2 construct: expressed in transfected cells
Assay: Validation by Y2H pairwise matrices;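 further: yeast two-hybrid pairwise tests of interactions first found in Y2H screens of HCV bait proteins against human cDNA libraries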
Format: binding
Conditions: validation of interaction with HCV protein NS3
Protocol: A comprehensive interactome map between HCV and cellular proteins was generated by Y2H screens. Twenty seven constructs encoding full-length HCV mature proteins or discrete domains were cloned using a recombination-based cloning system (10) (FIG. 6). Four independent screens were performed with each HCV bait protein, probing two distinct human cDNA libraries (Supplementary Methods). […] Two validation methods were used to assess the confidence of the IMAP Y2H dataset.

T2 sequence (Q9WMX2 1027-1657): as above

Molecule	Y2H matrices
B1	+
B2	+
B3	+
B4	+
B5	+
B6	+
